Reference: paper PMC5607241, “Chimeric 14-3-3 proteins for unraveling interactions with intrinsically disordered partners” (Scientific Reports, 2017)
Several values for one entry are separate records, joined by “and”; a condition that tells them apart may be missing. Identical values can stand only once. Each block holds one binder with its values, some of them ahead of it. Where no end group is shown, it is not given here. [ ]: non-standard residue; d: D form. pS = N[C@@H](COP(=O)(O)O)C(=O)O

How the values were obtained:
[1] = molecular target: T1, 14-3-3σ∆C mutant Clu3 (core of the chimeras) (human, UniProt P31947 1-231, 75EEK77 → 75AAA77); assay: crystal structure; pCH2 (mono-directional peptide swap), 0.1 M bis-Tris pH 6.5, 2 M (NH4)2SO4, 20 °C, 3.2 Å, PDB 5OM0; settings: both partners purified
T1 construct: three extra residues left at the N terminus after 3C cleavage of the hexahistidine tag; 14-3-3σ, human, C-terminally truncated (14-3-3σ∆C, residues 1-231), surface-entropy reduction mutant Clu3; Stood in the structures joined on one chain with the peptides (m1-m3); written as a molecule of its own for the pairs core/peptide; also called 14-3-3σ Clu3; 14-3-3σ∆C-Clu3; source: E. coli, as the …
T1 sequence: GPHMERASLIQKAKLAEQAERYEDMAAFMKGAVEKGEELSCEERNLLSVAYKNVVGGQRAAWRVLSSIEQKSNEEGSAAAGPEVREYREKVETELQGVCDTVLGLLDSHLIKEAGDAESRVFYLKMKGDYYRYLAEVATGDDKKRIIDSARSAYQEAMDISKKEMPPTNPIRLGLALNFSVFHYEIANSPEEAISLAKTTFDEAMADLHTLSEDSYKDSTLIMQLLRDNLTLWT

[2] = molecular target: the molecule itself; assay: SEC; analytical SEC, calibrated Superdex 200 Increase 10/300, 20 mM Tris-HCl pH 7.6, 150 mM NaCl, 0.1 mM EDTA, 3 mM β-mercaptoethanol, 1.2 mL/min; samples pre-incubated 30 min at room temperature; hydrodynamic radii from column calibration
[3] = molecular target: T1, 14-3-3σ∆C mutant Clu3 (core of the …); assay: crystal structure; pCH3 (bi-directional peptide swap), 0.1 M bis-Tris-propane pH 6.5, 0.2 M (NH4)2SO4, 25% PEG 3350, 20 °C, 3.9 Å, PDB 5OMA; settings: both partners purified
[4] = molecular target: the molecule itself; assay: crystal structure; pCH2 (mono-directional peptide swap), 0.1 M bis-Tris pH 6.5, 2 M (NH4)2SO4, 20 °C, 3.2 Å, PDB 5OM0
[5] = molecular target: the molecule itself; assay: crystal structure; pCH3 (bi-directional peptide swap), 0.1 M bis-Tris-propane pH 6.5, 0.2 M (NH4)2SO4, 25% PEG 3350, 20 °C, 3.9 Å, PDB 5OMA

binding result [1]: binds
B1: Gli phosphopeptide (RRApS640DPAQA), as fused in pCH2 (peptide)
peptide: RRA[pS]DPAQA
notes: Gli peptide RRAS640DPAQA, said to be conserved in Gli1, Gli2 and Gli3; Tethered through GSGSL to Thr231 of 14-3-3σ Clu3; also called Gli1 phosphopeptide; Gli-derived phosphopeptide; source: E. coli, as the C-terminal part of chimera pCH2, phosphorylated by co-expressed PKA

B2: 14-3-3σ Clu3 – HSPB6 phosphopeptide chimera, phosphorylated (pCH1) (other)
chain: GPHMERASLIQKAKLAEQAERYEDMAAFMKGAVEKGEELSCEERNLLSVAYKNVVGGQRAAWRVLSSIEQKSNEEGSAAAGPEVREYREKVETELQGVCDTVLGLLDSHLIKEAGDAESRVFYLKMKGDYYRYLAEVATGDDKKRIIDSARSAYQEAMDISKKEMPPTNPIRLGLALNFSVFHYEIANSPEEAISLAKTTFDEAMADLHTLSEDSYKDSTLIMQLLRDNLTLWTGSGSLRRASAPL
modifications: phosphoserine at Ser16 of the HSPB6 peptide (RRApS16APL)
notes: three extra residues left at the N terminus after 3C cleavage of the hexahistidine tag; 14-3-3σ, human, C-terminally truncated (14-3-3σ∆C, residues 1-231), surface-entropy reduction mutant Clu3; flexible linker; HSPB6 peptide RRAS16APL with the natural Leu that precedes it (the Leu is told in words; Dimer through the 14-3-3σ core; also called CH1 co-expressed with PKA; 14-3-3/HSPB6 chimera CH1; …)
stoichiometry N [2]: 2 and 4

binding result [3]: binds
B3: phosphorylated linker GSGpSLRR of pCH3 (peptide)
peptide: GSG[pS]LRR
notes: GSGS linker, the Leu kept from CH1 and the first two Arg of the StARD1 peptide; the stretch that was traced in the groove; also called cross-patching peptide of pCH3; source: E. coli, as part of the C-terminal tail of chimera pCH3, phosphorylated by co-expressed PKA

B4: 14-3-3σ Clu3 – Gli1 phosphopeptide chimera, phosphorylated (pCH2) (other)
chain: GPHMERASLIQKAKLAEQAERYEDMAAFMKGAVEKGEELSCEERNLLSVAYKNVVGGQRAAWRVLSSIEQKSNEEGSAAAGPEVREYREKVETELQGVCDTVLGLLDSHLIKEAGDAESRVFYLKMKGDYYRYLAEVATGDDKKRIIDSARSAYQEAMDISKKEMPPTNPIRLGLALNFSVFHYEIANSPEEAISLAKTTFDEAMADLHTLSEDSYKDSTLIMQLLRDNLTLWTGSGSLRRASDPAQA
modifications: phosphoserine at Ser640 of the Gli peptide
notes: three extra residues left at the N terminus after 3C cleavage of the hexahistidine tag; 14-3-3σ, human, C-terminally truncated (14-3-3σ∆C, residues 1-231), surface-entropy reduction mutant Clu3; Gli peptide RRAS640DPAQA, said to be conserved in Gli1, Gli2 and Gli3; the other grooves hold sulfate; also called 14-3-3σ fusion with Gli phosphopeptide; source: E. coli, co-expressed with His-tagged …
binding result [4]: binds

B5: 14-3-3σ Clu3 – StARD1 phosphopeptide chimera, phosphorylated (pCH3) (other)
chain: GPHMERASLIQKAKLAEQAERYEDMAAFMKGAVEKGEELSCEERNLLSVAYKNVVGGQRAAWRVLSSIEQKSNEEGSAAAGPEVREYREKVETELQGVCDTVLGLLDSHLIKEAGDAESRVFYLKMKGDYYRYLAEVATGDDKKRIIDSARSAYQEAMDISKKEMPPTNPIRLGLALNFSVFHYEIANSPEEAISLAKTTFDEAMADLHTLSEDSYKDSTLIMQLLRDNLTLWTGSGSLRRSSLLGSR
modifications: phosphoserine at the second Ser of the GSGS linker (-GSGpS-); phosphorylation status of the target and neighbouring serines (RRSSLLGSR) not known
notes: three extra residues left at the N terminus after 3C cleavage of the hexahistidine tag; 14-3-3σ, human, C-terminally truncated (14-3-3σ∆C, residues 1-231), surface-entropy reduction mutant Clu3; StARD1 peptide around Ser57 (RRSS57LLGS); also called 14-3-3σ fusion with StARD1/BimEL phosphopeptide; source: E. coli, co-expressed with His-tagged catalytic subunit of mouse PKA, purified (subtractive …)
binding result [5]: binds
